The values that follow come from patent publication US10562947B2, “Compositions and methods for preventing or treating diseases, conditions or processes characterized by aberrant fibroblast proliferation and extracellular matrix deposition” (MOERAE MATRIX, INC., priority 2011, dated 2020).

What all share (test): Kinase Profiling Assay
Holding throughout (type): biochemical
Settings in all cases: 100 μM peptide

In one experiment the target is T1, PKG1β(h) (Homo sapiens, UniProt Q13976).
T1 construct: purchased Millipore (IC50 Profiler Express service)
T1 sequence (Q13976 1-686 isoform Q13976-2): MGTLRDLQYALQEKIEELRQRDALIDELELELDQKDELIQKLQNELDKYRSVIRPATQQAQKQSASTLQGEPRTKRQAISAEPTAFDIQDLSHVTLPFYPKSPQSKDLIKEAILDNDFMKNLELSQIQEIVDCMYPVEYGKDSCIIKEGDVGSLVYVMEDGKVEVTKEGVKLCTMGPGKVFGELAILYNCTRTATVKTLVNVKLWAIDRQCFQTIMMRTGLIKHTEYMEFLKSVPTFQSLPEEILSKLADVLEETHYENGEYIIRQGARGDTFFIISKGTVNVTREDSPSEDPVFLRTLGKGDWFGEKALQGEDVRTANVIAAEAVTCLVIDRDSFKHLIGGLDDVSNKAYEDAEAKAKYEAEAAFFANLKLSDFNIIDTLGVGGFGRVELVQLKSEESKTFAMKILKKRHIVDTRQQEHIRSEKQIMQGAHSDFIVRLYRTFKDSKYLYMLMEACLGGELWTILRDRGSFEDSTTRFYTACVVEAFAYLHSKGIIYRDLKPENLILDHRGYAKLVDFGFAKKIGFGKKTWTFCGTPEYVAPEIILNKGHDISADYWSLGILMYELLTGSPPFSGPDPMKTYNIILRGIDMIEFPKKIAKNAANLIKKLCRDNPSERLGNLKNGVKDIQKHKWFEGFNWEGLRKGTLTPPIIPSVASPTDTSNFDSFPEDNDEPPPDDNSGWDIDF
Put shortly:
(§1)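 Off-target screen of MK2 peptide inhibitors, 266 human kinases, n = 2 per activity measurement.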

For the next experiment, the target named is T2, BrSK2(h) (Homo sapiens, UniProt Q8IWQ3).
T2 sequence (Q8IWQ3 1-736): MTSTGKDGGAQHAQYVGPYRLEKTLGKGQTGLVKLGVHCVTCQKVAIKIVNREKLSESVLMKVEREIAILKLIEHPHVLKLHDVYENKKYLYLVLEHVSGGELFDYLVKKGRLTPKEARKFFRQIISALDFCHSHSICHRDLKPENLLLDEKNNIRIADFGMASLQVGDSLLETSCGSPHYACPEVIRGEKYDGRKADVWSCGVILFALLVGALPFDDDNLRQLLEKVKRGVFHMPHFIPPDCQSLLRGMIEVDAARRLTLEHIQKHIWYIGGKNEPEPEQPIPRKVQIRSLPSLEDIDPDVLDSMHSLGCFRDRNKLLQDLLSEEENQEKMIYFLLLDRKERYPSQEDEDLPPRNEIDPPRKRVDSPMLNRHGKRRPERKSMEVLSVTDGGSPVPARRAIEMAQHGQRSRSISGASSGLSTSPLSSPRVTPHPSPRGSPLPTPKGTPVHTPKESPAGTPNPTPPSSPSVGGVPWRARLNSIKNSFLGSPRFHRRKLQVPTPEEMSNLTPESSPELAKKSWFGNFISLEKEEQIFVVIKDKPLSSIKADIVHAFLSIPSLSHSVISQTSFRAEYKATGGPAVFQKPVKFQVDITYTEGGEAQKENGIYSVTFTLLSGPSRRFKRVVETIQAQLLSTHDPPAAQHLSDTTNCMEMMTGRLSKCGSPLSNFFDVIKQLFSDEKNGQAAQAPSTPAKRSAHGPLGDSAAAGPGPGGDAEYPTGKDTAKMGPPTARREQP
Put shortly: as §1

For another experiment, the target named is CSK(h) (Homo sapiens, UniProt P41240). The method, boiled down:
as §1

The target in another experiment is T3, PKCζ(h) (Homo sapiens, UniProt Q05513).
T3 construct: purchased Millipore (IC50 Profiler Express service)
T3 sequence (Q05513 1-592): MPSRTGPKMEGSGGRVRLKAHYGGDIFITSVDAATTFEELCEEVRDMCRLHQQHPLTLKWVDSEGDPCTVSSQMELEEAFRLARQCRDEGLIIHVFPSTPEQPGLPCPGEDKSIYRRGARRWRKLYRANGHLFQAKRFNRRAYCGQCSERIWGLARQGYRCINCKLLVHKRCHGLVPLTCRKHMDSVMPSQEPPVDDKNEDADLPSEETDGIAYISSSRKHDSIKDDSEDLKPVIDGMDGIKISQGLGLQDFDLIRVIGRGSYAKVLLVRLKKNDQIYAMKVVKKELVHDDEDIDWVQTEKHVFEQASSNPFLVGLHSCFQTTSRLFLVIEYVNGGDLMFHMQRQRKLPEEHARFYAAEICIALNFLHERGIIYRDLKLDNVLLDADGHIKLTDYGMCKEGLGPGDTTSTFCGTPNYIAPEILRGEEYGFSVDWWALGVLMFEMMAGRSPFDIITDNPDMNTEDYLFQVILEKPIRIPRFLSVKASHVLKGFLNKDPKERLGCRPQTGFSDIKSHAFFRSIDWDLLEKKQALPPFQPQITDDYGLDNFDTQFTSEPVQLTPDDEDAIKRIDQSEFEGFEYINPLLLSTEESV
Put shortly:
as §1

A further experiment addresses Abl(T315I)(h) (Homo sapiens, UniProt P00519, T315I). The method, boiled down:
as §1

A further experiment has as its target T4, Rsk2(h) (Homo sapiens, UniProt P51812).
T4 construct: purchased Millipore (IC50 Profiler Express service)
The method, boiled down:
as §1

The target of the next experiment is Fgr(h) (Homo sapiens, UniProt P09769). The method, boiled down: as §1
For a further experiment, the target named is cKit(D816H)(h) (Homo sapiens, UniProt P10721, D816H). The method, boiled down: as §1
In another experiment the target is p70S6K(h) (Homo sapiens, UniProt P23443). The method, boiled down:
as §1

A further experiment has as its target PKCγ(h) (Homo sapiens, UniProt P05129). Put shortly: as §1
The target of the next experiment is MINK(h) (Homo sapiens, UniProt Q8N4C8). The method, boiled down: as §1
MINK(h), sequence (Q8N4C8 whole entry): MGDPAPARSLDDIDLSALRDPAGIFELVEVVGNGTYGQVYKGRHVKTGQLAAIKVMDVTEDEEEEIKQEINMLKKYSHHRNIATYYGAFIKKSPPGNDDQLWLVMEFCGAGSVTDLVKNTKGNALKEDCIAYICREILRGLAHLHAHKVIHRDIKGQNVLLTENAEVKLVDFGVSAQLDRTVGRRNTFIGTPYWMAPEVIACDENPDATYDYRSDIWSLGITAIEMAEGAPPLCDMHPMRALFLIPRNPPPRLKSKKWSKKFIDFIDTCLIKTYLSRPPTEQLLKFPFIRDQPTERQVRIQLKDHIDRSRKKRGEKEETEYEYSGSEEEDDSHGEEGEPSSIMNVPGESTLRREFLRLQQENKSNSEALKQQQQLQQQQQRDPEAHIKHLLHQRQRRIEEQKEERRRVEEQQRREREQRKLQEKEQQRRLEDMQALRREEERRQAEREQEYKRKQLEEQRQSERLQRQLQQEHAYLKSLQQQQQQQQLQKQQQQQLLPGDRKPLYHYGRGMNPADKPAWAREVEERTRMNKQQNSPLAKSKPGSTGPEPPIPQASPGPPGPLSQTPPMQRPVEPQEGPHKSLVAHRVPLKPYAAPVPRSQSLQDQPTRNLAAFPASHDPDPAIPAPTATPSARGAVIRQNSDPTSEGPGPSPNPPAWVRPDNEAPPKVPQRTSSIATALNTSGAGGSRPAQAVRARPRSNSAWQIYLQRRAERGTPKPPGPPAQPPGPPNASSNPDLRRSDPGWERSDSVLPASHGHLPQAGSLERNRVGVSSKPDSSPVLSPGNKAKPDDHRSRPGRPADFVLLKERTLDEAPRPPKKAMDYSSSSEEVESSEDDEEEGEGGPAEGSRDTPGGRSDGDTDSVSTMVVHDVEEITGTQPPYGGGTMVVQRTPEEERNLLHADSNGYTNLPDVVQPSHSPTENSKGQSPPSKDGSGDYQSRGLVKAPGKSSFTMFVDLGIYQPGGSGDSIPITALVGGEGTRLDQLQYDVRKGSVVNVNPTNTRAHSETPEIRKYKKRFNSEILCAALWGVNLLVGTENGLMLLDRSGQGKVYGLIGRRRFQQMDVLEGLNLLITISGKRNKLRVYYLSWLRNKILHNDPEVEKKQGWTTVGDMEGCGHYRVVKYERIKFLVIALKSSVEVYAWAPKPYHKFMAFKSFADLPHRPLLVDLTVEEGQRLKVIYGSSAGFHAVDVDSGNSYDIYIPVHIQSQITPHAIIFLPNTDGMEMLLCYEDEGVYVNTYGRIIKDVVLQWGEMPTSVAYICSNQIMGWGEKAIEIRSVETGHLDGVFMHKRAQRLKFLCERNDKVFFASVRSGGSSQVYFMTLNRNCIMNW
The next experiment deals with MSSK1(h) (Homo sapiens, UniProt Q9UPE1). The method, boiled down: as §1
MSSK1(h), sequence (Q9UPE1 whole entry): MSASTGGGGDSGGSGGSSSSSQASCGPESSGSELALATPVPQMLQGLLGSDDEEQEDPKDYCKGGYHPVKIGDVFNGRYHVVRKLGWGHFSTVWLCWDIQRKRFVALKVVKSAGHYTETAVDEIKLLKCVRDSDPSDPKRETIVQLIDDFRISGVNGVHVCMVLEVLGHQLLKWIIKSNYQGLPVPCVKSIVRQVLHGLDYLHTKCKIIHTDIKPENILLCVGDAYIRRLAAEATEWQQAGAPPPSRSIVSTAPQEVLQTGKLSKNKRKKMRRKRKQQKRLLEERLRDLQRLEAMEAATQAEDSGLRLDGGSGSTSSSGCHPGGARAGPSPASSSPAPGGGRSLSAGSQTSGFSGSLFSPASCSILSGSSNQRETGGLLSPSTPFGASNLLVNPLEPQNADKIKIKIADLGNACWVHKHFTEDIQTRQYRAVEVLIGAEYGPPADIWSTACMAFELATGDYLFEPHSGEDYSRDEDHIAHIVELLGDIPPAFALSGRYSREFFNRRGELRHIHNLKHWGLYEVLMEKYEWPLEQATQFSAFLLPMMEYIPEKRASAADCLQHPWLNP
The target in a further experiment is PKCη(h) (Homo sapiens, UniProt P24723). The method, boiled down: as §1
PKCη(h), sequence (P24723 whole entry): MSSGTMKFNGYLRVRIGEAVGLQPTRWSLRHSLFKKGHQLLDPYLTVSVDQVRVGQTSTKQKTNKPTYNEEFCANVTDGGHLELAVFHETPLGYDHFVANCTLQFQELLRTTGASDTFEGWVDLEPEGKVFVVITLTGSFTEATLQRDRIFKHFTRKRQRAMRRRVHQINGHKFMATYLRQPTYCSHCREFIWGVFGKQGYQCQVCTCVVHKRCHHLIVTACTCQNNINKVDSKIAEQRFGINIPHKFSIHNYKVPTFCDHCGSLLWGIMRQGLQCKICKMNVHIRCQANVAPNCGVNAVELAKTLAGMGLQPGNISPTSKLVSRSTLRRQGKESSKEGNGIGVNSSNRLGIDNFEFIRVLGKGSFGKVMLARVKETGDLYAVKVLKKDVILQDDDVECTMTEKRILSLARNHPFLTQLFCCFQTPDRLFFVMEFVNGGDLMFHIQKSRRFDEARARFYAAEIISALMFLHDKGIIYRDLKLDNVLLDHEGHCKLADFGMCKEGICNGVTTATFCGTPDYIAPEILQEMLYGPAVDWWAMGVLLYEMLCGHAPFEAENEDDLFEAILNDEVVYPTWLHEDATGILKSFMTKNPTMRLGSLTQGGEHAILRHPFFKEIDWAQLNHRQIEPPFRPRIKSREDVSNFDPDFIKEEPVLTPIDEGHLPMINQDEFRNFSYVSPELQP

CSK(h), sequence (P41240 whole entry): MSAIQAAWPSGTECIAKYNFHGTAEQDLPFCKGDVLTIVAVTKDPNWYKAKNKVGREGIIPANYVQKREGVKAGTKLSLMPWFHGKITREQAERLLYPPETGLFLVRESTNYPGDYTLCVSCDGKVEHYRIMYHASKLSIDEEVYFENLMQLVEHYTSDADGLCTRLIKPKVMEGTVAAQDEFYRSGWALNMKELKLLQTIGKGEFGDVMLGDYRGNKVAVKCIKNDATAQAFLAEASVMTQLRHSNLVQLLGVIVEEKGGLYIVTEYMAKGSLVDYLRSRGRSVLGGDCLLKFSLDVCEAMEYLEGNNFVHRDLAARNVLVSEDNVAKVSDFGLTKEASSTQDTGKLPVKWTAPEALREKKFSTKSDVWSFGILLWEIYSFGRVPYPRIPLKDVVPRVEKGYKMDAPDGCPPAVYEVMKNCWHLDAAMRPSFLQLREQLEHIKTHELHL
T4 sequence (P51812 whole entry): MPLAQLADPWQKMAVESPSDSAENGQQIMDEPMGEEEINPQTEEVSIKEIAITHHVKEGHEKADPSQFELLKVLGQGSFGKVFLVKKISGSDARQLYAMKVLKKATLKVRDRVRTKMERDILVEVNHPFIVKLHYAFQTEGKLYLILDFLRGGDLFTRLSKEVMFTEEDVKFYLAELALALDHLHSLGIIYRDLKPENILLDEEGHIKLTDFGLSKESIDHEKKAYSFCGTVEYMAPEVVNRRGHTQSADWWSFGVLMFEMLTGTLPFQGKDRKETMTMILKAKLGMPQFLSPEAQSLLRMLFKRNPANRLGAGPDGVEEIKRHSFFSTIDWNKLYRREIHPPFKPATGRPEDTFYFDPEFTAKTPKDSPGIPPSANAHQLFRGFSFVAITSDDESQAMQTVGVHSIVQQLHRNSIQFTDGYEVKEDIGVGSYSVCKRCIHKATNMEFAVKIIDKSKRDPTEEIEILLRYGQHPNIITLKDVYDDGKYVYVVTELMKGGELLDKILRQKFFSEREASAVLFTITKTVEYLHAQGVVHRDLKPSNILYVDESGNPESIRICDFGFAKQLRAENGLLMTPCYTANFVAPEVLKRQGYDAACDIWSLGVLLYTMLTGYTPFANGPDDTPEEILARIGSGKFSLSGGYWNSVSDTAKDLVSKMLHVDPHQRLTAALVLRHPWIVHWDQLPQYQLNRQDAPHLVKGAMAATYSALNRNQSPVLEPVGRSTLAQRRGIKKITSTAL
p70S6K(h), sequence (P23443 whole entry): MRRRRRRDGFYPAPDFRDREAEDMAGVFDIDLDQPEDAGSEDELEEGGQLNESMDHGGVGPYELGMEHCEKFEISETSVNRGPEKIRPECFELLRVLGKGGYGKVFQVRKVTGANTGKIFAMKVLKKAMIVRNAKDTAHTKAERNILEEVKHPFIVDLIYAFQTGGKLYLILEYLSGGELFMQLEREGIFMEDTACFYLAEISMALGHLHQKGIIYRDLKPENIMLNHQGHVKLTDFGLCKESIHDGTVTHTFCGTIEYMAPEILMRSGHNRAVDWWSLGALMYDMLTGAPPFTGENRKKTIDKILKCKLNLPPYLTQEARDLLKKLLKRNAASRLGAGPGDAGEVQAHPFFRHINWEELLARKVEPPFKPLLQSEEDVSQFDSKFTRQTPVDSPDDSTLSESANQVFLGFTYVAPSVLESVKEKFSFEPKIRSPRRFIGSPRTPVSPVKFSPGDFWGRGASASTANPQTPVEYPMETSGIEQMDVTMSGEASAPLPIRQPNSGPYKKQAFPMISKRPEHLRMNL

Take FAKLAARLYRKALARQLGVAA [MMI-0300]: the “PKG1β(h) % activity” value in the experiment with PKG1β(h) is given as 50%. For the same sequence, the “BrSK2(h) % activity” value in the experiment with BrSK2(h) was determined as 83%. Also, in the experiment with CSK(h), the “CSK(h) % activity” value is listed as 49%. In the experiment with PKCζ(h), the “PKCζ(h) % activity” value stood at 81%. In the experiment with Abl(T315I)(h), the “Abl(T315I)(h) % activity” value is 97%. Besides, the “Rsk2(h) % activity” value in the experiment with Rsk2(h) was 51%. Further, the “Fgr(h) % activity” value in the experiment with Fgr(h) is recorded as 60%. Moreover, the “cKit(D816H)(h) % activity” value with cKit(D816H)(h) came out at 126%. Moreover, the “p70S6K(h) % activity” value with p70S6K(h) was 35%. Further, the “PKCγ(h) % activity” value with PKCγ(h) worked out at 89%. The “MINK(h) % activity” value with MINK(h) came out at 48%. Besides, the “MSSK1(h) % activity” value in the experiment with MSSK1(h) is recorded as 77%.

Regarding KAFAKLAARLYRKALARQLGVAA [MMI-0400], the “PKG1β(h) % activity” value with PKG1β(h) was found to be 53%. Further, the “BrSK2(h) % activity” value in the experiment with BrSK2(h) was found to be 86%. The “CSK(h) % activity” value in the experiment with CSK(h) is 16%. The “PKCζ(h) % activity” value with PKCζ(h) came to 75%. For the same sequence, the “PKCη(h) % activity” value in the experiment with PKCη(h) was found to be 98%. The “Rsk2(h) % activity” value in the experiment with Rsk2(h) is 38%. The “Fgr(h) % activity” value with Fgr(h) is reported as 47%. Also, in the experiment with cKit(D816H)(h), the “cKit(D816H)(h) % activity” value worked out at 143%. For the same sequence, the “p70S6K(h) % activity” value with p70S6K(h) amounted to 33%. Also, the “PKCγ(h) % activity” value with PKCγ(h) came out at 79%. Besides, the “MINK(h) % activity” value in the experiment with MINK(h) is 52%. For the same sequence, the “MSSK1(h) % activity” value with MSSK1(h) was 75%.

Take “HRRIKAWLKKIKALARQLGVAA (Mammalian) [MMI-0500]”: the “PKG1β(h) % activity” value with PKG1β(h) was determined as 24%. For the same sequence, the “BrSK2(h) % activity” value in the experiment with BrSK2(h) is 84%. For the same sequence, in the experiment with CSK(h), the “CSK(h) % activity” value came to 2%. For the same sequence, in the experiment with PKCζ(h), the “PKCζ(h) % activity” value is recorded as 7%. Besides, the “PKCη(h) % activity” value in the experiment with PKCη(h) came out at 45%. For the same sequence, the “Abl(T315I)(h) % activity” value with Abl(T315I)(h) turned out to be 16%. The “Rsk2(h) % activity” value in the experiment with Rsk2(h) is 14%. For the same sequence, the “cKit(D816H)(h) % activity” value in the experiment with cKit(D816H)(h) is on record as 194%. In addition, the “p70S6K(h) % activity” value with p70S6K(h) is given as 3%. The “PKCγ(h) % activity” value with PKCγ(h) is on record as 6%. Besides, the “MINK(h) % activity” value in the experiment with MINK(h) stood at 5%. In the experiment with MSSK1(h), the “MSSK1(h) % activity” value is recorded as 22%.

As to “YARAAARQARAKALNRQLGVA (Mammalian) [MMI-0200]”, the “PKG1β(h) % activity” value with PKG1β(h) is on record as 57%. Further, the “CSK(h) % activity” value with CSK(h) amounted to 33%. Moreover, the “PKCζ(h) % activity” value with PKCζ(h) was 98%. In addition, in the experiment with PKCη(h), the “PKCη(h) % activity” value stood at 101%. In addition, the “Abl(T315I)(h) % activity” value with Abl(T315I)(h) is reported as 108%. Besides, in the experiment with Rsk2(h), the “Rsk2(h) % activity” value amounted to 101%. Besides, the “Fgr(h) % activity” value with Fgr(h) came out at 71%. In addition, in the experiment with p70S6K(h), the “p70S6K(h) % activity” value turned out to be 84%. Besides, in the experiment with PKCγ(h), the “PKCγ(h) % activity” value turned out to be 101%. In the experiment with MSSK1(h), the “MSSK1(h) % activity” value worked out at 100%.
